Reference: patent US20260001953A1

Target: Sialic acid-binding immunoglobulin-like lectin 8 (SIGLEC-8), antigen of the Carterra SPR studies (UniProt Q9NYZ4)
Test: SPR cross-reactivity table

Sequence of Sialic acid-binding immunoglobulin-like lectin 8 (SIGLEC-8), antigen of the Carterra SPR studies (Q9NYZ4 17-363 limits assumed): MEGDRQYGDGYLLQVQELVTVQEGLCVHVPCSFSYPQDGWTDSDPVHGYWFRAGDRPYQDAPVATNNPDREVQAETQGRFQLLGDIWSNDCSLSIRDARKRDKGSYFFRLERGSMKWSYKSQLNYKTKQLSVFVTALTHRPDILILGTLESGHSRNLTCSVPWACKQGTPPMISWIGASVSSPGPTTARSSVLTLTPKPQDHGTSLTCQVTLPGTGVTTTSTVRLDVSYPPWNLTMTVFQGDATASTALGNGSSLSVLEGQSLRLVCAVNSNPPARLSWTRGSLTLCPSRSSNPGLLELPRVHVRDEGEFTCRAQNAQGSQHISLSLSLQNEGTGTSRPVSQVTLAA

## Control (antibody)
  Kd: 0.031 nM
